From FireProtDB (doi:10.1016/j.bpc.2007.01.006)
Where “and” joins values, the source holds several entries; their conditions need not be identical. Equal entries are not always repeated.

Details: Bos taurus, pH 2, 25 °C, Glycine-HCl 0.05 M, KCl 0.1 M, reversible: Yes, whole UniProt chain shown
[1] = GdnHCl, Fluorescence, transition: 3

B1: Beta-lactoglobulin wild type, P02754 (protein)
chain: MKCLLLALALTCGAQALIVTQTMKGLDIQKVAGTWYSLAMAASDISLLDAQSAPLRVYVEELKPTPEGDLEILLQKWENGECAQKKIIAEKTKIPAVFKIDALNENKVLVLDTDYKKYLLFCMENSAEPEQSLACQCLVRTPEVDDEALEKFDKALKALPMHIRLSFNPTQLEEQCHI
denaturant m value [1]: 4.97 kcal/mol/M and 4.1 kcal/mol/M | denaturant midpoint (higher = more stable) [1]: 1.44 M and 3.14 M | unfolding free energy [1]: 7.15 kcal/mol and 4.88 kcal/mol | denaturant m value (Urea, Absorbance): 1.62 kcal/mol/M | denaturant midpoint (higher = more stable) (Urea, Absorbance): 5.3 M | unfolding free energy (Urea, Absorbance): 8.58 kcal/mol | denaturant m value (Urea, CD): 1.06 kcal/mol/M and 1.08 kcal/mol/M and 1.1 kcal/mol/M | denaturant midpoint (higher = more stable) (Urea, CD): 6 M and 6.34 M and 6.55 M | unfolding free energy (Urea, CD): 6.41 kcal/mol and 6.84 kcal/mol and 7.17 kcal/mol | denaturant m value (Urea, Fluorescence): 1.56 kcal/mol/M | denaturant midpoint (higher = more stable) (Urea, Fluorescence): 5.42 M | unfolding free energy (Urea, Fluorescence): 8.41 kcal/mol
